In paper PMC11332829, “Elucidating regulation of polyhydroxyalkanoate metabolism in Ralstonia eutropha: Identification of transcriptional regulators from phasin and depolymerase genes”:

T1: H16_B0227 (H-NS-like DNA-binding protein) (Ralstonia eutropha H16) (UniProt Q0K4P6)
T1 sequence: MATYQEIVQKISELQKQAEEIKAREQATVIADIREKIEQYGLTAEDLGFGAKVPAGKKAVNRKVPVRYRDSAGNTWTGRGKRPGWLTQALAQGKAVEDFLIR

T2: H16_B1672 (HTH XRE-family like protein) (Ralstonia eutropha H16) (UniProt Q0K0L7)
T2 sequence: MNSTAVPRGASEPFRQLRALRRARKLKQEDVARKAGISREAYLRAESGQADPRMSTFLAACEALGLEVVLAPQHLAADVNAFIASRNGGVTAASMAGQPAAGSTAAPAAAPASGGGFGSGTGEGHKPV

T3: PpiB (peptidyl-prolyl cis-trans isomerase) (Ralstonia eutropha H16?) (UniProt Q0KCB2)
T3 sequence: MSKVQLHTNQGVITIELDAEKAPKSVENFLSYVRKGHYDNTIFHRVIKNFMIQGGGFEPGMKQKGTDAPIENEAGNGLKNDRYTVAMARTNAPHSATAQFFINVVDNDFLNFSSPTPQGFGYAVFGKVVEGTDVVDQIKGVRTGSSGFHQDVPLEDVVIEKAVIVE

T4: H16_B1672 (HTH XRE-family like protein) (Ralstonia eutropha H16, UniProt Q0K0L7 1-128)
T4 sequence: T2 sequence

B1: PphaP1 100-mer (MG0235/MG0236), EMSA (dsDNA)
DNA 1: TGGCGTCACAGCCGCTCCCGTGTATCGCCAGCAACGTTGTTTGTGCATTGCACAAAATCCACTTGACATTGGATCTGGCGCCCCTAAAATAGGAATTGTT
DNA 2: AACAATTCCTATTTTAGGGGCGCCAGATCCAATGTCAAGTGGATTTTGTGCAATGCACAAACAACGTTGCTGGCGATACACGGGAGCGGCTGTGACGCCA

Columns and labels:
[1] = target: T1, H16_B0227 (H-NS-like DNA-binding protein) (Ralstonia eutropha H16); assay: EMSA; conditions: EMSA: labeled DNA in TBE/glycerin-bromophenol blue with herring sperm DNA, 15 min at 30 C, 6% native PAGE at 4 C (protein eluted in 100 mM Tris-HCl pH 8, 150 mM)
[2] = target: T2, H16_B1672 (HTH XRE-family like protein) (Ralstonia eutropha H16); assay: EMSA; conditions: EMSA: labeled DNA in TBE/glycerin-bromophenol blue with herring sperm DNA, 15 min at 30 C, 6% native PAGE at 4 C (protein eluted in 100 mM Tris-HCl pH 8, 150 mM)
[3] = target: T3, PpiB (peptidyl-prolyl cis-trans isomerase) (Ralstonia eutropha H16?); assay: EMSA; conditions: EMSA: labeled DNA in TBE/glycerin-bromophenol blue with herring sperm DNA, 15 min at 30 C, 6% native PAGE at 4 C (protein eluted in 100 mM Tris-HCl pH 8, 150 mM)
[4] = target: T4, H16_B1672 (HTH XRE-family like protein); assay: EMSA; conditions: EMSA: labeled DNA in TBE/glycerin-bromophenol blue with herring sperm DNA, 15 min at 30 C, 6% native PAGE at 4 C (protein eluted in 100 mM Tris-HCl pH 8, 150 mM)
[5] = target: T4, H16_B1672 (HTH XRE-family like protein); assay: EMSA; EMSA: labeled DNA in TBE/glycerin-bromophenol blue with herring sperm DNA, 15 min at 30 C, 6% native PAGE at 4 C (protein eluted in 100 mM Tris-HCl pH 8, 150 mM NaCl, 1 mM EDTA, 2.5 mM desthiobiotin); pull-down: crude extract, 0.5x TBE, salmon sperm DNA, 1 h at 8 C; conditions: protein: recombinant; tags: Strep-tag; chain copies: 2; label: 5'-32P on MG0235; blunt

Molecule	binding [1]	binding [3]	also measured
ATCGAATTCGGACCCGCGTCCGAGGTATCGCAGCGCCTGGCTGACATCATGCTTGAGGCGTTGCGTCCAGTGTGATGGCGGCGGCGGGATGGCTGGTCACGCCCTATCGGATCGGCGGTGAACCATCGAATTCCGGCCGTTCACGTAACAGGATGCGGAAGACCGGTACGGGGTCGCAAGCAAGCGGGCCCCGCCAGCGGCGCGGCGCTTGATGTTTGGCGTTGCAGCAAGGCCTGTCCGACATATAGTGAAATCCTGGC (double strand) [PphaZ3 PCR fragment, EMSA]	no binding	no binding	binding [2]: no binding
ATCGGATCCGGGTGCTGCGCAATGCGGGCTTCAGCGCAGTTGGCGTGCCCGACAGCCGCATGGCCGGCTTCGTGCAAGGTGGGCGGGCGGGCGACAGGCTTCTGCCGCGGGTGCGTAGGTGGGAAGGTGGCGCTGGTGCACTGAGAAGTGCTGCGCGCGGCTCAGGTGCCGTCGATGTCGAATGGACTGGCTGCGGGAGGCTCCGGTCGAATTCGAT (double strand) [PphaZ5 PCR fragment, EMSA]	no binding	no binding	Kd [2]: 1500 nM
PphaZ5 PCR fragment, EMSA			Kd [4]: 1500 nM
B1			Kd [5]: 175 nM
